Assay results as given in paper PMC3662644, “Genome wide analysis of the complete GlnR nitrogen-response regulon in Mycobacterium smegmatis”.
Residue numbers refer to the chain shown, from its start.

Legend:
[1] = target: T1, His-GlnR (Mycobacterium smegmatis (mc2 155?)) (UniProt A0R4C4); experiment: EMSA; conditions: EMSA: 0.4 ng DIG-labelled DNA, 0-0.9 ug His-GlnR, 0.5 ug poly d(A-T), 25 mM Hepes pH 7.9, 150 mM NaCl, 2.5 mM MgCl2, 37 C, 15 min
T1 sequence: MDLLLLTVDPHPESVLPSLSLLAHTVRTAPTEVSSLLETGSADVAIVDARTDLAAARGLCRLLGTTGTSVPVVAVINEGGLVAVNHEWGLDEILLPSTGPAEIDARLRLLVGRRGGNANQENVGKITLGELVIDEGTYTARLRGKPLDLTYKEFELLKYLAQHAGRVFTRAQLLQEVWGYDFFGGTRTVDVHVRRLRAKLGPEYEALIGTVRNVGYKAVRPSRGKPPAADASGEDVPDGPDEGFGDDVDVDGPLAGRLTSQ

His-GlnR = target: T2, His-GlnR (Mycobacterium smegmatis, UniProt A0R4C4 1-261); experiment: EMSA; EMSA: 0.4 ng DIG-labelled DNA, 0-0.9 ug His-GlnR, 0.5 ug poly d(A-T), 25 mM Hepes pH 7.9, 150 mM NaCl, 2.5 mM MgCl2, 37 C, 15 min; conditions: protein: recombinant; tags: N-terminal His6 (pET28b); chain copies: 2; label: DIG 3'-end; blunt
T2 sequence: T1 sequence

With “GAGTGTTTGCGGGGCGTTACAGCCGGCGTTGGCTGTGCAACGACCTGTGCTTTGTCGGCGGGAAACATGAGCGTAACAGTGATCGGGATTGCGTTCACTTTCCGGAAACGCAACGGCAGCACCGGCGAAACGCCGGCAACAGAATCTCATCGGGAGGCCGATCCGTCGGCGCACTTCCCAAGGAGGTTCACACAAA (double strand)” the binding [1] was “binds”.

With “GTACGGGTCGCGCACCTTGTCGGTGAGGATGAGGATCGCATCGACGATGCCCCAGATGAAGGCACCGATGCCACACGTCACCAGGCCCACGATCAGCTGCGCGATGCCGAGCCCGGTCTGCCCCAGATAGATCCGCCCGAACCCGACGAAACCGACCAGGCCGATCAACTGCAACAGGC (double strand) [MSMEG3224 promoter (negative control)]” the binding [1] was “no binding”.

In the case of “AGCTTGCCTACGAGCTCGAGGAGGCGCGGCCCTGGGCGCGCATACAAGATGTCACCGCGACCAAGCAGCCGCGTAAGCGGGCCGCGAAGAAGGCCACGAAAACCACGGAGTAGGGCACAAACCGGCGTGGCGCGTGACATGACCCCGTAACCCGGGCCGTGTCCTGTTAACGAACTCGACACCGCGAACGGCTGCGGGTGAAACATCGGGCTCGCAGCATCCCTCATT (double strand) [peak 21 MSMEG2522 promoter]”, the binding [1] is reported as “binds”.

In the case of “GACGCGTCCATTCGGTTGTCCTCCCCGTTGTCGACGGGCCCGAAGCTACCCACGCCATGTTGCGACGACGTTGCGGTTGCGTTCGAACCCGTTGACATCAGCCAGAATTGACGCACGCGTCGGACTACCAGCGGTAGTCGAGGAACTTCCCGTCGAAGGTCACCACCACCCGGTCCCCGTCTGGATCGGGACGACGCTGGATGTCCACCTTGAAGTTGATGGCGCTCATG (double strand) [peak 42 MSMEG5358 promoter]”, the binding [1] is reported as “binds”.

With “AACGGTGTGCTTCCTCCGCTGTAGGTGGATCACCGCGTGAAGCGGGTGACCGGTGCAGGGTCGGCGCAACTTACTGCGCTTGGAAAATGCTCGCGCAGGAACGTTTCGGTGGATCCCGTCGGCAATGTCGGTGACGTTAACTCTGCACGGCCCCGCGTTACGTTGTGGTGACCTGACGCAACGGATTTCGTTGTGTGTCCGGTAG (double strand) [peak 22 MSMEG2526 promoter]” the binding [1] was “binds”.

For “GCGCTGCTGGTCATGGGTTTTCTCTCTGGCTAGGGGCGCTGCCGCCAGCTCTTACCTGTCAGATGACAGATAACAATGGGCGCGTGTCCTCGGCGTCACCCGAATGTTTCGTTCATGTAGCCGTCGGTAAGCATTCGGTTGCAGAACCCTCACCGCCCGTGGGCCTGTCACAATCGCCGGTATGCCCGCCCCCGACCTCGTGCAGCGCCACATCGACG (double strand) [peak 17 MSMEG2184 promoter]”, the binding [1] was “binds”.

“AAGCCGGATCCAGACGTGTGTTTCCGCGGCATCGGGCGACTGTGTGCTCGATGTTTAGACTTTACTGCTTGGTAACCTACGGAGCCGTAGGTTACGGTAGCGTAGGTAGACGAAAGGAGGGTTGCCAATGGCTGTTACCGACGTCCCGGCGTTCGCGCATCTGACCGAAGCCGATATCGAGAACCTGGGTATCGAGC (double strand) [peak 13 MSMEG1886 promoter]” was tested, and the binding [1] was “binds”.

B1: Peak 24 GG (dsDNA)
DNA 1: TCATGTCGAGGTTAGGTTGTTCGTCGGACACAGACATT
DNA 2: AATGTCTGTGTCCGACGAACAACCTAACCTCGACATGA
B1: no binding (His-GlnR).

B2: Peak 24 G (dsDNA)
DNA 1: B1 DNA 1 with G16T, G27C
DNA 2: B1 DNA 2 with C12G, C23A
B2: no binding (His-GlnR).

B3: Peak 2 GG (dsDNA)
DNA 1: GCAATCGCGGGGTAGGGCCGTGGAAGGAGAGCCTGCCT
DNA 2: AGGCAGGCTCTCCTTCCACGGCCCTACCCCGCGATTGC
B3: no binding (His-GlnR).

B4: Peak 2 G (dsDNA)
DNA 1: B3 DNA 1 with G16C, G27C
DNA 2: B3 DNA 2 with C12G, C23G
B4: no binding (His-GlnR).
